Results on one molecule are retold here after patent US20250205190A1, “NUTRITIONAL COMPOSITION” (N.V. NUTRICIA, priority 2022, published 2025).

Common to all, as to experiment: i-screen in vitro colon microbiota model, fermentation of infant faecal pool, 16S rRNA sequencing
What all share (assay type): cell-based
Holding throughout (settings): t = 24 hours anaerobic fermentation, SIEM medium, 37° C., triplicate, ingredient conc. per Table 1

For test [1], the system named is Enterobacteriaceae. As for the experimental part: (§1) In an in vitro colon microbiota model, i-screen™ (TNO, Zeist, Netherlands), the effect of infant milk formula ingredients on the anaerobic fermentation of infant microbiota was assessed.
(§2) The in vitro microbiota model mimics colonic conditions. Before a consumed ingredient reaches the colon in a human, already a part of the digestion/absorption has taken place in the gastrointestinal tract preceding the colon. For each ingredient the degree of digestion/absorption before reaching the colon varies and this was taken into account when selecting the ingredient concentrations to be tested (see Table 1).
(§3) The infant faecal pool consisted of samples obtained from faeces of 5 European infants aged 3.5-8.5 months. The samples were thawed, homogenized, aliquoted and stored at −80° C. till the start of the i-screen assay run.
(§4) • Before starting the fermentation with the test ingredients. The infant fecal pool was incubated in an anaerobic flask for 4 hours in SIEM (simulated ileal environment media) medium (pH 5.8) under anaerobic conditions (37° C.; 300 rpm). Subsequently this SIEM medium with feces was homogenized and distributed into a 96 w-plate. • The test ingredients were pre-diluted in a higher concentration in fresh SIEM medium and added to the existing medium in the 96 wells plate. For milk fat the addition method was slightly adapted, milk fat was added to fresh SIEM medium at 45° C., subsequently thoroughly homogenized, followed by addition to the wells in the 96 w plate. • The i-screen experiment included an untreated control (microbiota only), an positive control (Inulin, Raftiline ST), blanks (SIEM medium only) and technical controls (internal controls for DNA isolation and sequencing). • Each test condition was conducted in triplicate. • After 24 hours of fermentation in SIEM medium under anaerobic conditions at 37° C., samples were collected for DNA analyses. […]
(§5) Changes in the microbiota composition were analyzed by using 16S rDNA amplicon sequencing. […] Amplicon quality and size were analyzed on a Fragment Analyzer (Advanced Analytical Technologies, Inc.). […]

The subject of test [2] is Bacteroidaceae. How it is done: as §1, §2, §3, §4, §5
For test [3], the system named is Bifidobacteriaceae. As for the experimental part: as §1, §2, §3, §4, §5

B1: Lactoferrin (protein, UniProt P24627 20-708, looked up)
Lactotransferrin: APRKNVRWCTISQPEWFKCRRWQWRMKKLGAPSITCVRRAFALECIRAIAEKKADAVTLDGGMVFEAGRDPYKLRPVAAEIYGTKESPQTHYYAVAVVKKGSNFQLDQLQGRKSCHTGLGRSAGWIIPMGILRPYLSWTESLEPLQGAVAKFFSASCVPCIDRQAYPNLCQLCKGEGENQCACSSREPYFGYSGAFKCLQDGAGDVAFVKETTVFENLPEKADRDQYELLCLNNSRAPVDAFKECHLAQVPSHAVVARSVDGKEDLIWKLLSKAQEKFGKNKSRSFQLFGSPPGQRDLLFKDSALGFLRIPSKVDSALYLGSRYLTTLKNLRETAEEVKARYTRVVWCAVGPEEQKKCQQWSQQSGQNVTCATASTTDDCIVLVLKGEADALNLDGGYIYTAGKCGLVPVLAENRKSSKHSSLDCVLRPTEGYLAVAVVKKANEGLTWNSLKDKKSCHTAVDRTAGWNIPMGLIVNQTGSCAFDEFFSQSCAPGADPKSRLCALCAGDDQGLDKCVPNSKEKYYGYTGAFRCLAEDVGDVAFVKNDTVWENTNGESTADWAKNLNREDFRLLCLDGTRKPVTEAQSCHLAVAPNHAVVSRSDRAAHVKQVLLHQQALFGKNGKNCPDKFCLFKSETKNLLFNDNTECLAKLGGRPTYEEYLGTEYVTAIANLKKCSTSPLLEACAFLTR
notes: Friesland Campina, Vivinal Lactoferrin, comprises 96 wt. % lactoferrin; 2 mg/ml in well
Take B1: the “Average relative abundance (%) [st. dev] Enterobacteriaceae” value in test [1] is 41.73 (1.64) %. The “Average relative abundance (%) [st. dev] Bacteroidaceae” value in test [2] is recorded as 19.81 (0.48) %. Besides, the “Average relative abundance (%) [st. dev] Bifidobacteriaceae” value in test [3] was 9.39 (1.50) %.
